Results taken from US7910550B2, “Human kunitz-type inhibitor with enhanced antifibrinolytic activity” (STC.UNM, priority 2004, dated 2011).
Substitutions are numbered along the chain they refer to. Numbers in names are those of the source.

What was measured:
[1] = system: human umbilical vein endothelial cells (HUVECs); experiment: In vitro human endothelial cell angiogenesis assay (capillary tube formation on ECMATRIX); format: cell-based
Excerpt: The angiogenesis assay is commercially available from Chemicon International, Inc. (Temecula, Calif.), and involves growing human umbilical vein endothelial cells (HUVECs) on a proprietary matrix, followed by assessing angiogenesis on this matrix by counting new branch points in sprouting endothelial cells.
A semi-quantitative assay for in vitro angiogenesis was utilized. Human umbilical vein endothelial cells (HUVEC, Clonetics Corp., Walkersville, Md.) were maintained in 25 cm^2 flasks in EGM-2 media (Clonetics Corp.) supplemented with 2% fetal bovine serum, gentamicin, amphotericin-B, hEGF, hydrocortisone, VEGF, hFGF-B, R^3-IGF-1, ascorbic acid and heparin. For assay, a 48-well tissue culture plate was coated with 100 μl of ECMATRIX (Chemicon International, Inc., Temecula, Calif.) followed by incubation at 37° C. for one hour. Approximately 5×10^4 cells were then seeded onto the surface of the polymerized matrix. Varying concentrations of full-length human TFPI-2, diluted in EGM-2 media and filtered, were added to the wells and plate was placed in 37° C.-humidified CO2 incubator. Each treatment was performed in duplicate wells. Separately, VEGF was used as a positive control. The three-dimensional organization of cells was examined every hour under an inverted photomicroscope. The capillary tube branch point formation was counted in each well following eight hours of incubation. For each concentration, eight randomly chosen areas under 250× magnified field were observed. The results are expressed as number of branching points (mean±SEM) and the differences between each mean value was tested by one way analysis of variance (ANOVA). Statistically p-value <0.05 was accepted.
To examine the effect of full-length human TFPI-2 on morphogenesis (capillary-like tube formation) of endothelial cells, HUVECs were seeded on the matrigel and treated with full-length human TFPI-2 (0.2 μM-5 μM).

[2] = biological target: factor VIIa-tissue factor complex (Homo sapiens, UniProt P08709); conditions: relative to TFPI-2; cited from earlier work
Sequence of factor VIIa-tissue factor complex (P08709 213-466 limits assumed): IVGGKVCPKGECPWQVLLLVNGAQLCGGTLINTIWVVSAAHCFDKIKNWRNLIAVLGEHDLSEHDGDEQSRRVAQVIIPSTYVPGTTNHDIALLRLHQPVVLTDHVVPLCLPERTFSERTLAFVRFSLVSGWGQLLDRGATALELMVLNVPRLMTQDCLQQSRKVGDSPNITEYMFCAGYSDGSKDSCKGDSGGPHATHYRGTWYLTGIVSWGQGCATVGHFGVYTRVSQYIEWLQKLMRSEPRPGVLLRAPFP
Sequence of factor VIIa-tissue factor complex (P08709 61-212 partner limits assumed): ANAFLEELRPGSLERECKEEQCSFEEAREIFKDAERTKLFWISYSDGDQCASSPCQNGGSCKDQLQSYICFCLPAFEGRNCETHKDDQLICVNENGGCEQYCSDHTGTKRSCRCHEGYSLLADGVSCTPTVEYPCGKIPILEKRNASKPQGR
Sequence of factor VIIa-tissue factor complex (P13726 33-295 partner): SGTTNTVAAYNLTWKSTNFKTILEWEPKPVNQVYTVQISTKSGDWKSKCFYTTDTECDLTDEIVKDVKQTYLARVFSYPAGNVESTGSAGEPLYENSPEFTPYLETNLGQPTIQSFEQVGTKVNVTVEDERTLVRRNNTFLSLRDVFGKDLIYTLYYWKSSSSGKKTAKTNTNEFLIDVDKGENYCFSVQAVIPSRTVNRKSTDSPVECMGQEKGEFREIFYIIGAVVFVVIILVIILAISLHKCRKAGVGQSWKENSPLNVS

plasmin = plasmin (Homo sapiens, UniProt P00747); conditions: relative to TFPI-2; cited from earlier work
Sequence of plasmin (P00747 581-810 limits assumed, species assumed): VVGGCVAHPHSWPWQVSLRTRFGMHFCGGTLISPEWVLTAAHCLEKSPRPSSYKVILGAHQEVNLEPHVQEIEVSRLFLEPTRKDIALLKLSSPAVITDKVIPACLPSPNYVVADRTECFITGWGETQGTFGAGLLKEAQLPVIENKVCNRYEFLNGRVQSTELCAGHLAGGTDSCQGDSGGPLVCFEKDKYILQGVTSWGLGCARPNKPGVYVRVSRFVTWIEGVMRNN
Sequence of plasmin (P00747 97-580 partner limits assumed, species assumed): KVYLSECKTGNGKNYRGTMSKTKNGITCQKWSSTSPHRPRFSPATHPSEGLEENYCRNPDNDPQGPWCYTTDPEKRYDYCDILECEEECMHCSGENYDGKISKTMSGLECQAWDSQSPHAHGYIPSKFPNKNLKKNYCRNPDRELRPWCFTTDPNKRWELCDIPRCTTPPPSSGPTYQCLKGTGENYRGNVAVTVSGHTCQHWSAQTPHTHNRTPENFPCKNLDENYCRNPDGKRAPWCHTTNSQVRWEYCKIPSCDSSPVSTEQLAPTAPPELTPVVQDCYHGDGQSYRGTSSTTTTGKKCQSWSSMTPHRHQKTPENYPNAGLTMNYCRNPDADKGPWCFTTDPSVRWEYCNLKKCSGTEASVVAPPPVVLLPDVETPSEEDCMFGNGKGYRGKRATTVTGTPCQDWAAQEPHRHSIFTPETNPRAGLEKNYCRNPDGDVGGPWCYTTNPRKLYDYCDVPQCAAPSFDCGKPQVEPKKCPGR

trypsin = conditions: relative to TFPI-2; cited from earlier work
[3] = system: murine model of allergic asthma; experiment: Murine model of allergic asthma (OVA-immunized B6D2F1 mice); format: in vivo; conditions: lateral tail vein, days 11-14; vs vehicle treated mice
Procedure: B6D2F1 mice were immunized with ovalbumin (OVA) adsorbed to alum (days 0 and 5) and received two OVA aerosols on day 12. A subgroup of mice were treated with hexahistidine-tagged KD1, delivered via the lateral tail vein, on days 11-14. Mice were sacrificed on day 15 for the enumeration and differentiation of cells in the airway and lung tissue compartments.

HT-1080 cells [4] = experiment: Apoptosis detection by AO/EB staining; format: cell-based, human; conditions: 1 μM, 48 h; approximately 5% in vehicle-treated cells
Procedure: (§1) All cell lines were maintained in Dulbecco's minimal essential medium (DMEM), supplemented with heat-inactivated 10% fetal bovine serum and penicillin-streptomycin. The cells were cultured either in 6- or 12-well plates at 37° C. in a humidified atmosphere containing 6% CO2. At confluence, the cells were treated with fresh medium containing either wild-type TFPI-2, R24K KD1, or R24Q KD1. Cells were treated in duplicate with purified proteins at concentrations ranging from 0.5 μM to 10 μM for different time intervals. One set were also treated with PBS to serve as a control. The Limulus Amebocyte Lysate (LAL) assay was performed on each protein preparation to determine the presence of any endotoxin/LPS, and only trace amounts of endotoxin (<0.5 ng/L) were detected in each protein preparation.
Cells were grown to confluence in two-chamber culture slides containing 2 ml medium. For AO/EB staining, the cultures were treated with recombinant proteins as described above. […] Cells were viewed within 30 minutes of staining and counted using a Zeiss axiocam epifluorescence microscope (Carl Zeiss, Inc., Thornwood, N.Y.) equipped with a triple cube filter [DAPI/FITC/RITC]. […] Experiments were performed in triplicate, and a minimum of 100 total live and apoptotic cells were counted in each treatment.

HT-1080 cells [5] = experiment: Western blot of cell extracts (Bax, Bcl-2, cleaved caspase-9, cleaved caspase-3); format: cell-based, human; conditions: 1 μM, 48 hours; vs vehicle-treated cells
Procedure: Cell extracts were analyzed for the pro-apoptotic Bax, the anti-apoptotic Bcl-2, cleaved caspase-9 and cleaved caspase-3 by immunoblotting techniques. Approximately, 1×10^6 HT-1080 cells were grown to confluence in 6-well plates and treated with recombinant proteins and vehicle as described above. Both floating and adherent cells were harvested and washed twice with cold PBS. The cells were lysed by sonication in 500 μl of lysis buffer containing of 125 mM Tris-HCl (pH 6.8), 2% SDS, 10% glycerol, 50 mM sodium phosphate, 1 mM PMSF and protease inhibitor cocktail. The lysate was kept on ice for about 10 minutes, centrifuged for 15 minutes at 10,000×g at 4° C., and the supernatant recovered. The supernatants were boiled for 3 min and 50 μg of lysate protein subjected to SDS-PAGE in 4-20% polyacrylamide gradient gels. […] The nitrocellulose membranes were then probed with specific antibodies dissolved in fresh blocking buffer, and immunoreactive proteins were identified using HRP-conjugated secondary antibodies and a chemiluminescent reagent system essentially as described in Kempiah et al., Mol. Cancer, 6:20, 2007. Separate blots were treated with mouse monoclonal anti-α-tubulin antibody in order to verify equal loading of lysate proteins onto the gel.

HT-1080 cells [6] = experiment: FACS analysis of apoptosis with annexin V/propidium iodide; format: cell-based, human; conditions: 1 μM, 48 hours
Procedure: as §1
To assess the degree of apoptosis between the various treatments, cells were grown to confluence in 6 well plates and treated with either proteins or vehicle as described earlier. For annexin V staining, approximately 1.2×10^6 cells were harvested with PBS containing 1 mM EDTA and washed twice gently with cold PBS. The cells were suspended in 100 μl of cold binding buffer (10 mM Hepes (pH 7.4), 140 mM NaCl, 2.5 mM CaCl2), and subsequently incubated at room temperature in the dark for 25 minutes with 5 μl of FITC-conjugated annexin V and 10 μl of propidium iodide (50 μg/ml stock). The cells were then washed in 500 μl of binding buffer to remove unbound reagents, centrifuged at 900×g for 5 minutes, and resuspended in 1 ml of cold binding buffer. The labeled cells were then analyzed using a FACSCALIBUR flow cytometer (Becton Dickinson, San Jose, Calif.) and the data analyzed using […] software.

VEGF [reference compound]
time to first visible tube ([1]; approximately 4 hours in the control): ≤ 3 h
number of tube formation ([1]; positive control, compared to control HUVECs): significant increase in number of tube formation

B1: R24Q TFPI-2: full-length TFPI-2 mutant, P1 arginine R24 to glutamine; inactive mutant (protein)
chain: DAAQEPTGNNAEICLLPLDYGPCQALLLRYYYDRYTQSCRQFLYGGCEGNANNFYTWEACDDACWRIEKVPKVCRLQVSVDDQCEGSTEKYFFNLSSMTCEKFFSGGCHRNRIENRFPDEATCMGFCAPKKIPSFCYSPKDEGLCSANVTRYYFNPRYRTCDAFTYTGCGGNDNNFVSREDCKRACAKALKKKKKMPKLRFASRIRKIRKKQF
inhibitory activity toward factor VIIa-tissue factor complex [2]: 5-10%
lost inhibitory activity towards factor VIIa-tissue factor complex [2]: > 90%
inhibitory activity toward plasmin (plasmin): 5-10%
lost inhibitory activity towards plasmin (plasmin): > 90%
inhibitory activity toward trypsin (trypsin): 5-10%
lost inhibitory activity towards trypsin (trypsin): > 90%

B2: KD1: the first Kunitz-type domain of human TFPI-2 (SEQ ID NO:2), recombinant, expressed in E. coli (protein, listed as Homo sapiens)
chain: DAAQEPTGNNAEICLLPLDYGPCRALLLRYYYDRYTQSCRQFLYGGCEGNANNFYTWEACDDACWRIEKVPKV
cells, macrophages and lymphocytes recoverable from the airways [3]: significant decrease in the number of airway macrophages and lymphocytes
inhibition of angiogenesis (capillary-like tube formation) ([1]; HUVECs on matrix): does not inhibit angiogenesis

B3: R24Q KD1: KD1 point mutant, arginine 24 to glutamine; lacks reactive site arginine/lysine residue (protein)
chain: B2 chain with R24Q
modifications: left off: small tags and cut ends
apoptotic cells (AO/EB staining) (HT-1080 cells [4]): 18%
activated caspase 9 and activated caspase 3 (immunoblot) (HT-1080 cells [5]): levels were significantly lower than that observed with TFPI-2 or R24K KD1
cells in a late apoptotic stage (annexin V and PI positive) (HT-1080 cells [6]; vehicle 4%): ~15%
early apoptotic cells (annexin V-FITC positive) (HT-1080 cells [6]; vehicle 16%): 55%
